# Source: article PMC5416870, “Lee Hyunah 1 2”
# Target: SOX (alkaline exonuclease) (Kaposi's sarcoma-associated herpesvirus …, UniProt P88925 1-486)
# Experiment: fluorescence polarization anisotropy; FPA with 3'FAM oligonucleotides, single site binding fit (GraphPad PRISM6); buffer, pH and temperature as in cited Bagneris et al., not in material
# Conditions: protein: recombinant
binder,measurement,setting,value
GFP51 (structured_RNA) RNA: UACGGCAAGCUGACCCUGAAGUUCAUCUGCACCACCGGCAAGCUGCCCGUG,Kd,"label: 3'FAM, stem loop with UGAAG motif",5 µM
dsUN51 (dsRNA) RNA 1: GGCCAUCCUGUUUUUUUCCCUUUUUUUUUUUCUUUUUUUUUUUUUUUUUUU RNA 2: AAAAAAAAAAAAAAAAAAAAAAGAAAAAAAAAAAGGGAAAAAAACUGGAUGGCC,Kd,"label: 3'FAM (strand 1), duplex, as printed has one U-U mismatch and second strand about 3 nt longer (5' overhang)",~73 µM
GAUCUGAGCCAUUGAAGCAAGCUUCCAGAUC (structured_RNA) [K2-31],Kd,"label: 3'FAM, hairpin",49 µM
HBB58 (structured_RNA) RNA: AGGUGAAGGCUCAUGGCAAGAAAGUGCUCGGUGCCUUUAGUGAUGGCCUGGCUCACCU,Kd,"label: 3'FAM, bulge",42 µM
